The source of these data is article PMC10653858 (mBio, 2023).

In the experiment the target is LegAS4 (84–532aa), RomA homolog of L. pneumophila strain Philadelphia (L. pneumophila strain Philadelphia, UniProt Q5ZUS4 84-532). Kind of experiment: crystal structure. The note with it: both partners purified.

B1: histone H3 peptide P1 (15-mer, residues 3-17), NH2-TKQTARKSTGGKAPR-COOH (peptide)
peptide: H-TKQTARKSTGGKAPR-OH
notes: also called 15-mer peptide; (3-17)-N-terminal H3 P1 peptide
As to B1, the binding result was “binds”. For the molecule H-ARTKQTARKSTG-OH (also called 12-mer peptide) [histone H3 peptide P2 (12-mer, residues 1-12), NH2-ARTKQTARKSTG-COOH], the binding result is on record as “binds”.
